Laboratory results: publication PMC5061722

How the values were obtained:
Experiment in all cases: SEC
[1] = biological target: truncated ΔN1-EpsE-Hcp1 fusion (pET21(d)epsE(100-503)-8aa-hcp1-his6) (UniProt P37093)
[2] = biological target: EpsE-XcpR CM-Hcp1 chimera fusion (UniProt P37093)
[3] = biological target: full-length EpsE-Hcp1 fusion (pET21(d)epsE(1-503)-8aa-hcp1-his6) (UniProt P37093)

For “truncated ΔN1-EpsE-Hcp1 fusion (pET21(d)epsE(100-503)-8aa-hcp1-his6) (from UniProt P37093 100-503)”, the stoichiometry N [1] was 6.
With “EpsE-XcpR CM-Hcp1 chimera fusion (from UniProt P37093)” the stoichiometry N [2] was 6.
“full-length EpsE-Hcp1 fusion (pET21(d)epsE(1-503)-8aa-hcp1-his6) (from UniProt P37093 1-503)” showed a stoichiometry N [3] of 6.
